The binders below were run against T1, Human PTK7 Protein, His Tag, Acro Biosystems (human, UniProt Q13308 31-704) (assay: BLI, anti-human Fc capture, 50 nM PTK7; 2 = substantially similar binding relative to parent).
T1 construct: Bought recombinant protein; also called CCK4; not shown: His tag
T1 sequence: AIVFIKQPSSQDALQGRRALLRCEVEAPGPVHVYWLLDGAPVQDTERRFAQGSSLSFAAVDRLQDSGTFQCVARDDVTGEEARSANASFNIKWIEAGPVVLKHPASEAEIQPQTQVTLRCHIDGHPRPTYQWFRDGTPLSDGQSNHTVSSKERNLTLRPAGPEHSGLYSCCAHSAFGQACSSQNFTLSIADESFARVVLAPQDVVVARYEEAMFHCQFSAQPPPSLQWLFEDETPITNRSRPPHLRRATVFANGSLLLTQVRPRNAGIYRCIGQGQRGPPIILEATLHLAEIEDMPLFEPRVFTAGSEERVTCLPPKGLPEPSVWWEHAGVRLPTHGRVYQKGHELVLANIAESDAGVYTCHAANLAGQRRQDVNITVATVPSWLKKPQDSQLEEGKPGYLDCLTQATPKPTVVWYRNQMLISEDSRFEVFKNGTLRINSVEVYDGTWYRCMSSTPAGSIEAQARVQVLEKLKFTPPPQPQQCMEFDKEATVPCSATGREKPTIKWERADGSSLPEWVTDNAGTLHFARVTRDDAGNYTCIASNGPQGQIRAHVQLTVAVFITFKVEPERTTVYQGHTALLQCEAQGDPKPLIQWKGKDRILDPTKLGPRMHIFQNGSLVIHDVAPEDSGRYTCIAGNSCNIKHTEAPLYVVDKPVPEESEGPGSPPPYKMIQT

Binder | binding result
MYT11256 (antibody, V domains shown, MYT9792 variant, His at VH 28 (H1 03)) VH: EVQLVESGGGLVQPGGSLRLSCTASGIHLSRYSMGWVRQAPGKGLEWVGIISYGGSTYYASWAKGRFTISRDTSKNTVYLQMNSLRAEDTAVYFCARVGYPGYSGYGYAFDAFDPWGQGTLVTVSS VL: EIVMTQSPSTLSASVGDRVIITCQSSKSVYNDNWLSWYQQKPGKAPKLLIYGASTLASGVPSRFSGSGSGAEFTLTISSLQPDDFATYYCAGGYSSSSDNGFGQGTKLTVL | binds

These binders were tested against T2, Human PTK7 Protein, His Tag, Acro Biosystems (human, UniProt Q13308 31-704) in the same assay as above.
T2 construct: Bought recombinant protein; also called CCK4; not shown: His tag
T2 sequence: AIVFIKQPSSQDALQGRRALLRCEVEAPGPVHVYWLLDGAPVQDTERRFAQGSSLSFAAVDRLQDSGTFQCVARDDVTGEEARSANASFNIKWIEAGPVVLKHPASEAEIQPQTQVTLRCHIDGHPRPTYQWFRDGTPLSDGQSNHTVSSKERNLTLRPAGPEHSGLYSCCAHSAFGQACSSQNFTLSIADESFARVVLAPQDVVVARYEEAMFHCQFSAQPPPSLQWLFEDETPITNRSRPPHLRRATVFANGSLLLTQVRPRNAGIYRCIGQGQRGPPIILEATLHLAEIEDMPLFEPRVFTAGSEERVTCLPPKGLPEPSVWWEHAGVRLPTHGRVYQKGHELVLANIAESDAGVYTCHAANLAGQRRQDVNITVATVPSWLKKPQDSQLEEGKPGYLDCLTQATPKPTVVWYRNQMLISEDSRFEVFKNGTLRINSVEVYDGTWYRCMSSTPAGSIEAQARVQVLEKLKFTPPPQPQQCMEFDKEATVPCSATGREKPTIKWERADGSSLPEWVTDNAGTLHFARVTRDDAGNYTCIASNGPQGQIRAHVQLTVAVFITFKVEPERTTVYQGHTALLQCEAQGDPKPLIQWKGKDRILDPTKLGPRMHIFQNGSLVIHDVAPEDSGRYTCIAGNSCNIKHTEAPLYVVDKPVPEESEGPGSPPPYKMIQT

Binder | binding result
MYT11154 (antibody, V domains shown, MYT9412 LC variant) VH: EVQLVESGGGLVQPGGSLRLSCTASGFSLSTYAMSWVRQAPGKGLEWVGMIYINDNTYYASWAKGRFTISRDTSKNTVYLQMNSLRAEDTAVYFCARDIGISYYIGVSLWGQGTLVTVSS VL: EIVMTQSPSTLSASVGDRVIITCQASQSIGTRHSWYQQKPGKAPKLLIYGASKLATGVPSRFSGSGSGAEFTLTISSLQPDDFATYYCLGEYSYTTTDGIAFGQGTKLTVL | binds
MYT11171 (antibody, V domains shown, MYT9412 LC variant) VH: EVQLVESGGGLVQPGGSLRLSCTASGFSLSTYAMSWVRQAPGKGLEWVGMIYINDNTYYASWAKGRFTISRDTSKNTVYLQMNSLRAEDTAVYFCARDIGISYYIGVSLWGQGTLVTVSS VL: EIVMTQSPSTLSASVGDRVIITCQASQSIGTRLSWYQQKPGKAPKLLIYGASKLATGVPSRFSGSGSGAEFTLTISSLQPDDFATYYCLGEYSYTTHDGIAFGQGTKLTVL | binds
MYT11167 (antibody, V domains shown, MYT9412 LC variant) VH: EVQLVESGGGLVQPGGSLRLSCTASGFSLSTYAMSWVRQAPGKGLEWVGMIYINDNTYYASWAKGRFTISRDTSKNTVYLQMNSLRAEDTAVYFCARDIGISYYIGVSLWGQGTLVTVSS VL: EIVMTQSPSTLSASVGDRVIITCQASQSIGTRLSWYQQKPGKAPKLLIYGASKLATGVPSRFSGSGSGAEFTLTISSLQPDDFATYYCLGEYHYTTTDGIAFGQGTKLTVL | binds
MYT11162 (antibody, V domains shown, MYT9412 LC variant) VH: EVQLVESGGGLVQPGGSLRLSCTASGFSLSTYAMSWVRQAPGKGLEWVGMIYINDNTYYASWAKGRFTISRDTSKNTVYLQMNSLRAEDTAVYFCARDIGISYYIGVSLWGQGTLVTVSS VL: EIVMTQSPSTLSASVGDRVIITCQASQSIGTRLSWYQQKPGKAPKLLIYGASKLAHGVPSRFSGSGSGAEFTLTISSLQPDDFATYYCLGEYSYTTTDGIAFGQGTKLTVL | binds
MYT11159 (antibody, V domains shown, MYT9412 LC variant) VH: EVQLVESGGGLVQPGGSLRLSCTASGFSLSTYAMSWVRQAPGKGLEWVGMIYINDNTYYASWAKGRFTISRDTSKNTVYLQMNSLRAEDTAVYFCARDIGISYYIGVSLWGQGTLVTVSS VL: EIVMTQSPSTLSASVGDRVIITCQASQSIGTRLSWYQQKPGKAPKLLIYGASHLATGVPSRFSGSGSGAEFTLTISSLQPDDFATYYCLGEYSYTTTDGIAFGQGTKLTVL | binds
MYT11175 (antibody, V domains shown, MYT9412 LC variant) VH: EVQLVESGGGLVQPGGSLRLSCTASGFSLSTYAMSWVRQAPGKGLEWVGMIYINDNTYYASWAKGRFTISRDTSKNTVYLQMNSLRAEDTAVYFCARDIGISYYIGVSLWGQGTLVTVSS VL: EIVMTQSPSTLSASVGDRVIITCQASQSIGTRLSWYQQKPGKAPKLLIYGASKLATGVPSRFSGSGSGAEFTLTISSLQPDDFATYYCLGEYSYTTTDGIHFGQGTKLTVL | binds
MYT11164 (antibody, V domains shown, MYT9412 LC variant) VH: EVQLVESGGGLVQPGGSLRLSCTASGFSLSTYAMSWVRQAPGKGLEWVGMIYINDNTYYASWAKGRFTISRDTSKNTVYLQMNSLRAEDTAVYFCARDIGISYYIGVSLWGQGTLVTVSS VL: EIVMTQSPSTLSASVGDRVIITCQASQSIGTRLSWYQQKPGKAPKLLIYGASKLATGVPSRFSGSGSGAEFTLTISSLQPDDFATYYCLHEYSYTTTDGIAFGQGTKLTVL | binds
MYT11157 (antibody, V domains shown, MYT9412 LC variant) VH: EVQLVESGGGLVQPGGSLRLSCTASGFSLSTYAMSWVRQAPGKGLEWVGMIYINDNTYYASWAKGRFTISRDTSKNTVYLQMNSLRAEDTAVYFCARDIGISYYIGVSLWGQGTLVTVSS VL: EIVMTQSPSTLSASVGDRVIITCQASQSIGTRLSWYQQKPGKAPKLLIYGHSKLATGVPSRFSGSGSGAEFTLTISSLQPDDFATYYCLGEYSYTTTDGIAFGQGTKLTVL | binds
MYT11155 (antibody, V domains shown, MYT9412 LC variant) VH: EVQLVESGGGLVQPGGSLRLSCTASGFSLSTYAMSWVRQAPGKGLEWVGMIYINDNTYYASWAKGRFTISRDTSKNTVYLQMNSLRAEDTAVYFCARDIGISYYIGVSLWGQGTLVTVSS VL: EIVMTQSPSTLSASVGDRVIITCQASQSIGTRLHWYQQKPGKAPKLLIYGASKLATGVPSRFSGSGSGAEFTLTISSLQPDDFATYYCLGEYSYTTTDGIAFGQGTKLTVL | binds
MYT11170 (antibody, V domains shown, MYT9412 LC variant) VH: EVQLVESGGGLVQPGGSLRLSCTASGFSLSTYAMSWVRQAPGKGLEWVGMIYINDNTYYASWAKGRFTISRDTSKNTVYLQMNSLRAEDTAVYFCARDIGISYYIGVSLWGQGTLVTVSS VL: EIVMTQSPSTLSASVGDRVIITCQASQSIGTRLSWYQQKPGKAPKLLIYGASKLATGVPSRFSGSGSGAEFTLTISSLQPDDFATYYCLGEYSYTHTDGIAFGQGTKLTVL | binds
MYT11179 (antibody, V domains shown, MYT9412 LC alanine variant) VH: EVQLVESGGGLVQPGGSLRLSCTASGFSLSTYAMSWVRQAPGKGLEWVGMIYINDNTYYASWAKGRFTISRDTSKNTVYLQMNSLRAEDTAVYFCARDIGISYYIGVSLWGQGTLVTVSS VL: EIVMTQSPSTLSASVGDRVIITCQASQSIGTRLSWYQQKPGKAPKLLIYGASKLATGVPSRFSGSGSGAEFTLTISSLQPDDFATYYCLGAYSYTTTDGIAFGQGTKLTVL | binds
MYT11173 (antibody, V domains shown, MYT9412 LC variant) VH: EVQLVESGGGLVQPGGSLRLSCTASGFSLSTYAMSWVRQAPGKGLEWVGMIYINDNTYYASWAKGRFTISRDTSKNTVYLQMNSLRAEDTAVYFCARDIGISYYIGVSLWGQGTLVTVSS VL: EIVMTQSPSTLSASVGDRVIITCQASQSIGTRLSWYQQKPGKAPKLLIYGASKLATGVPSRFSGSGSGAEFTLTISSLQPDDFATYYCLGEYSYTTTDHIAFGQGTKLTVL | binds
MYT11168 (antibody, V domains shown, MYT9412 LC variant) VH: EVQLVESGGGLVQPGGSLRLSCTASGFSLSTYAMSWVRQAPGKGLEWVGMIYINDNTYYASWAKGRFTISRDTSKNTVYLQMNSLRAEDTAVYFCARDIGISYYIGVSLWGQGTLVTVSS VL: EIVMTQSPSTLSASVGDRVIITCQASQSIGTRLSWYQQKPGKAPKLLIYGASKLATGVPSRFSGSGSGAEFTLTISSLQPDDFATYYCLGEYSHTTTDGIAFGQGTKLTVL | binds
MYT11156 (antibody, V domains shown, MYT9412 LC variant) VH: EVQLVESGGGLVQPGGSLRLSCTASGFSLSTYAMSWVRQAPGKGLEWVGMIYINDNTYYASWAKGRFTISRDTSKNTVYLQMNSLRAEDTAVYFCARDIGISYYIGVSLWGQGTLVTVSS VL: EIVMTQSPSTLSASVGDRVIITCQASQSIGTRLSWYQQKPGKAPKLLIYHASKLATGVPSRFSGSGSGAEFTLTISSLQPDDFATYYCLGEYSYTTTDGIAFGQGTKLTVL | binds
MYT11158 (antibody, V domains shown, MYT9412 LC variant) VH: EVQLVESGGGLVQPGGSLRLSCTASGFSLSTYAMSWVRQAPGKGLEWVGMIYINDNTYYASWAKGRFTISRDTSKNTVYLQMNSLRAEDTAVYFCARDIGISYYIGVSLWGQGTLVTVSS VL: EIVMTQSPSTLSASVGDRVIITCQASQSIGTRLSWYQQKPGKAPKLLIYGAHKLATGVPSRFSGSGSGAEFTLTISSLQPDDFATYYCLGEYSYTTTDGIAFGQGTKLTVL | binds
MYT11160 (antibody, V domains shown, MYT9412 LC variant) VH: EVQLVESGGGLVQPGGSLRLSCTASGFSLSTYAMSWVRQAPGKGLEWVGMIYINDNTYYASWAKGRFTISRDTSKNTVYLQMNSLRAEDTAVYFCARDIGISYYIGVSLWGQGTLVTVSS VL: EIVMTQSPSTLSASVGDRVIITCQASQSIGTRLSWYQQKPGKAPKLLIYGASKHATGVPSRFSGSGSGAEFTLTISSLQPDDFATYYCLGEYSYTTTDGIAFGQGTKLTVL | binds
MYT11169 (antibody, V domains shown, MYT9412 LC variant) VH: EVQLVESGGGLVQPGGSLRLSCTASGFSLSTYAMSWVRQAPGKGLEWVGMIYINDNTYYASWAKGRFTISRDTSKNTVYLQMNSLRAEDTAVYFCARDIGISYYIGVSLWGQGTLVTVSS VL: EIVMTQSPSTLSASVGDRVIITCQASQSIGTRLSWYQQKPGKAPKLLIYGASKLATGVPSRFSGSGSGAEFTLTISSLQPDDFATYYCLGEYSYHTTDGIAFGQGTKLTVL | binds
MYT11161 (antibody, V domains shown, MYT9412 LC variant) VH: EVQLVESGGGLVQPGGSLRLSCTASGFSLSTYAMSWVRQAPGKGLEWVGMIYINDNTYYASWAKGRFTISRDTSKNTVYLQMNSLRAEDTAVYFCARDIGISYYIGVSLWGQGTLVTVSS VL: EIVMTQSPSTLSASVGDRVIITCQASQSIGTRLSWYQQKPGKAPKLLIYGASKLHTGVPSRFSGSGSGAEFTLTISSLQPDDFATYYCLGEYSYTTTDGIAFGQGTKLTVL | binds
